These results are taken from the DeepSol protein solubility set.

The nature of this data set: soluble on expression in E. coli; label from the status in PepcDB or PDB records.
In the case of “SLENKIVKIEPQSIAEEMGIEVGDSLISINGKEVKDIIDYRFLMADEYVVVKIQKTNKEIWELEIEKEYDEKLGVEFESGILDSAKSCRNKCIFCFIDQLPKGMRKTLYFKDDDSRLSFLQGNFVTLTNMSDDDIDRIIKYRISPINISVQTTNPELRKKMLNNKFAGNLMERMKKLSNAGITMNCQVVLCPGINSGEEFSKTVNDLYKLYPSVKNIAGVPVGITSYREGLFNMVPYDSQSALKEIENIKPIQEKFIKEIGSPFVRLSDEFYVLSGIPIPKAEFYGEFEQFEDGIGMIRTFRDNINMSLDNLKDGIHKSFTMVTGVLAYEEIENAAKMLMEKSRGLKINVIKVINEFFGEKITVAGLLTGRDILNYLKRNEVGDYIILPSNMLKSDEDVFLDDVKVLDIEKELNKKVLVCNYSGEDLVDIINKNGREE”, the “soluble on expression in E. coli” value is given as “soluble”.

Regarding “MERYNTMSGKKTESSDNIVLYPGLVKRLIEKGMEALKEKDAKKALTMFEQAEQYDAEPSQILFGKALCYVELGKLDDAVLLTDQMLRNDIGNYYDILQIHLSLLVQLGRYDEVVEMLDVVLAEDRLPAKHAESFYQLLHFSRQMVEDSPTYIKEPLSEELDLKETYDDINERDSLEQWHFLQQMRKHNNPADIRTLLSFVESESNDPALRSYALHMLTMHKVEKRVRIRKFDQEAEVIPVELNADEQQRFGNAVVEQLEARLAVENPSLFKMAEQLWWQFLYALYPFTPKPEQKDLWAGAVHVAVHESNGLPFDEEEIAGMYNCRVQQMLEKGEEIHFVETETFQGISGHSFRMAGDPLEHHHHHH”, the “soluble on expression in E. coli” value was “soluble”.

With “GMSDPAGKPCIICVAITGSLPTKENNPAVPITLAEQVESTHEAFEAGASIAHCHVRDDEGRPTSDPDRFAALKEGLERHCPGMIVQLSTGGRSGAGQARGAMLPLCPDMASLSVGSNNFPTRVYENPPDLVDWLAAEMLKYDIKPEIEAFDLSHILQAKRMAGDGRLAGTPYVQFVMGVRNAMPADRDVFDYYIHTVRRLFGEDAPWCAAGIGPSQIVLNEWAISSGGHARTGLEDNVRLDRDRLAPSNAALVGRAVELCEKYERPVATWRQARQILGLRMV”, the “soluble on expression in E. coli” value is “soluble”.

In the case of “MDSIERKKTKPYNINEKEILDIVAAKGSYLSSISENLEEVPPHKESSSRAESKKTITDEEVKKYIEALLNNFSSNRRKPLHIDAQVYECISDIVWAVRRKDFTVSGVISRILVEHIKENAGMIKKITGRDYKLLQP”, the “soluble on expression in E. coli” value is recorded as “not soluble”.

Regarding “MKGITSLGSKWFVEFEKNNVHNVYDRIAEHFTKTRYRIWPGVELFLKQTSPLDTVLDVGCGNGKNLISYRNLFCIGIDRCVPLVKTCKQRQLETAVADILELPFQSEKFDIVLCIAVLHHLCTRERRILAIQELGRVLRPGGSCLLYVWAANENDGKDEVKNTKAREKMRFLDENKQEALIPWVVIDHEKKATQLEKNLKQPSTFTLERYYHLYRQGELEEECLQSNCFHIQHSYYEQSNWCVVLDKKS”, the “soluble on expression in E. coli” value is on record as “soluble”.

On to “MGSDKIHHHHHHMSVLCLDLGGTKLMLAQVEGKTLLDTWRYPVPADGNFEQLFDFLVTCIHSHLTPETYGISIGIPGMVDMQSGTLLEVLNIPALTATQLAQQLKNTFEMDVVVNNDANLFALGEAVLNSNQDMLGITLGTGVGAGVIFNGQLYSGKHCAAGEIGSLSYRDGIIEHYCSGQYFTTHHHMSGEHLYQKACEGDSQALQAFAHFGEHLAHMIAQTLLVYDPKDIVLGGSVSQSFPFFIEALKQKLQSLVYGPQLADLTISASQHHNAALIGAAQWFLQQQKSSDFN”, for which the “soluble on expression in E. coli” value was “not soluble”.

Turning to “GPGSMSYSGRKLKYFVEDSDGWLRRNQQVAEQFVMAEDDRETKEMLSLLAPRAHFASFWGVVRGLPAAVALQAQEREHLRITWTSGLQPLTSRTFARNGYVHVLDRERMSFIPVLGPWLSSFFQRPVQELLVVREGRVVFRGMGYVWDIGKH”, the “soluble on expression in E. coli” value is recorded as “not soluble”.

Regarding “GMPENTAMAALLPEESLFFRELVKQWRAQDSYGTWEKKSDMELLAPYVLDKEQRRAIPIIGDPDPEILWRVELFYNAVGLATERASGVMVSPMMKMSHEGFGRMVLIAGRLIVVNKQLRDVHRFGFPSMEKLAEEGDKLVAGALEMIEKFPEVARF”, the “soluble on expression in E. coli” value is “soluble”.

Consider “MSLKTHKKVKIPILLKIAKLPKSSFYEWKHKLENTIDKDKELKEMIVDIFSKSFETYGYRRLKMALKSKGYIVNHKKILRLTKELGVQCIKFRTKNGRYSSYKGTVGKIADNVLKRNFHSLQANKLWCTDVTEFKVNGQKLYLSPIIDLYNDEIISYSIQTNPNLNLTNSMLDKALKKVKNTNGFLIHSDQGFHYQHISWAKKLEENNITQSMSRKGNCLDNAIIENFFGLLKQEIYYGEKYNSVEELTKRIHKYIYWYNNIRIKEKLKGLSPVQFRKQSCYNIEGHHHHHH”, for which the “soluble on expression in E. coli” value is on record as “not soluble”.
